Experimental data: the DeepSol protein solubility set

Assay: soluble on expression in E. coli; label from the status in PepcDB or PDB records

| Sequence | soluble on expression in E. coli |
| --- | --- |
| MKSAEIREAFLRFFEEKGHTRVASSSLIPANDPTLLFTNAGMNQFKDCFLGLEKRAYTRATTSQKCVRAGGKHNDLENVGYTARHHTFFEMLGNFSFGDYFKRDAIHYAWEFLTGEKWLNLPKEKLWVTVYATDDEAYDIWTKEVGVPAERMVRIGDNKGAPYASDNFWAMGDTGPCGPCTEIFFDHGPEIWGGPPGSPEEDGDRYIEIWNNVFMQFNRTADGVMHPLPAPSVDTGMGLERVSAVLQHVHSNYEIDLFQNLLKASAEAIGCANDDAPSLKVVADHIRSCSFLIADGVLPSNEGRGYVLRRIIRRACRHGNKLGARGTFFHKIVAALVAEMGDAFPELKQQQAHIERVLKTEEEQFAKTLEQGLKILEQDLAELQGSVIPGNVVFKLYDTYGFPVDLTNDIARERELTIDEDGFEREMEAQRERARASSAFGMDYNSLVKVDGETRFLGYQGVSGAGQIVALFRDGQAVERLEEGEEGVVVLDQTPFYAESGGQVGDSGYLEAAGVRFDVRDTTKAGGAHLHHGVVARGNLSVGGAVKAEVDASVRQATALNHSATHLLHAALRQVLGDHVQQKGSLVDSQRLRFDFSHFEAIKAEQLKALEDIVNAEIRRNTEVETEETDIDTAKAKGAMALFGEKYGDQVRVLSMGGDFSVELCGGTHVSRTGDIGLFKITSEGGVAAGVRRIEAVTGAAALAYLNGAEEQLKEAASLVKGSRDNLLDKLGALLERNRSLEKELEQLKAKAASAAGDDLSAAAVEIKGAKVLAARLDGLDGKALLALVDQLKNKLGRAVILLGGELDGKVVLVAGVTQDLTGQLKAGELMKQAAAAVGGKGGGRPDMAQGGGTDAAKLDEALALAQRF | not soluble |
| MGKKPVVIGVAGGSGSGKTSVARAIYDHFGDHSILVLEQDFYYKDQSHLPFEERLKTNYDHPLAFDNDLLIEHIHKLLRYEPIDKPVYDYTLHTRSSDVIRVEPKDVIIVEGILVLEDERLRNLMDIKVYVDTDPDIRIIRRLIRDMKERGRTFDSVIEQYLSVVRPMHNQFVEPTKRYADVIIPEGGQNVVAIDLMVAKIRTVLEQKAVL | not soluble |
| MSLAAGADAGPGPEPCATLVQGKFFGYFSAAAVFPANASRCSWTLRNPDPRRYTLYMKVAKAPVPCSGPGRVRTYQFDSFLESTRTYLGVESFDEVLRLCDPSAPLAFLQASKQFLQMRRQQPPQHDGLRPRAGPPGPTDDFSVEYLVVGNRNEGHHHHHH | not soluble |
| MLKTPSDAAVAGCLSLLLEVSGNPKAGNVDREHDFDDLKFEHFLASAAGAFPAFLEVAEKRIIGEGVLRAVKESMRWHRAENVHFGAFLLLVPLISSWDAG | not soluble |
| MGSDKIHHHHHHMKILAFGEVLLRMTVPEHLMLTQTDELRMSTVGTGVNLLSSLTHFGYRTRLLSRLPDNALGQRAAGELRRYGIQDDYVTFGGQHMGAYFVELGYGSRPERVTYQDRLSSAFCQQPPDDQEIAAALVGCQFVHICGITLSLTAPVRQAALRLAQQAHANGQRVCFDFNYRQQLNTGVAHETLKARYQEILPYVDIVFGSKRDLTALLDYPDDEDRTQSANRESEAALYEQFVRDYHIDYFAGSYRYQIGQQKWFAGFSYQHQQLVVGKARPLMILDRIGSGDAFASGIITALIEGWSLQKTTDFAIATAILAQATVNDAPEFTKEMVLADMASDGQLELIR | not soluble |
| GPGSMERNPAHPLDATAKLPVRQKEVTFDSLCVNADDRFVEGLSGKSEERRGFRPNTKLYAANAARTRGRTGGASDLGFTESLPTLNEVIGEEKISHLGRLRARPPRAAEGSTDVIPVARVKAKSSLTRPVHATPTSIPSTRSLWVEGSSVLNQDVGHASAALTHLSDCVAQERRLKVEWEAARLAKIRALRAVVKVFMQSFIDRGSFARSTSVGGKVMSDTLAVARCSVITNTLVGTVQNFMRAFRSRRLCAARGPVSGLQLFPNIAGQESDRFTLSLYSSAPGGAESSVNESYVSPNHSVSDYLEEEEVSRIKQLYFDYFDCEAVSISSAVASGSDMSIFAYSAASSISRPSSPVSRGGDHSSFSHCASTTM | not soluble |
| MAAPEAEVLSSAAVPDLEWYEKSEETHASQIELLETSSTQEPLNASEAFCPRDCMVPVVFPGPVSQEGCCQFTCELLKHIMYQRQQLPLPYEQLKHFYRKPSPQAEEMLKKKPRATTEVSSRKCQQALAELESVLSHLEDFFARTLVPRVLILLGGNALSPKEFYELDLSLLAPYSVDQSLSTAACLRRLFRAIFMADAFSELQAPPLMGTVVMAQGHRNCGEDWFRPKLNYRVPSRGHKLTVTLSCGRPSIRTTAWEDYIWFQAPVTFKGFRE | soluble |
| MAHHHHHHMPRIEISKDVKLTIMSYNIQMLSIPFSVHLNSWTRRNAIIDYICSLDDIYDIDILVLNEVFTKKCYKLLTSGKIKEKFPYHTNVIGRNYKRHDNYNDSSSSTGQKDGLSFHSSDTNINIESSRGISNYVSEQMEYIRKNKENHKNKLSKISEDISENSNSSYNSNFDTITGKRKFFHFVNGGVIVLSKHKILHKHALIYSSGKFPDVFCSKGAIYLKCDVMNKKVNVVATHLQAGDNKEQQKCRWKQIDELSKWVYEGIPSTFIKKFESLFFVGDFNIRYNADRLFLDKVLSDNYLNSYVTKKSLDTTYDSFLNDYCRYIERDYNYKHKYTLDYILVANNSNVEIIVPQTSIQNYYKSLYFIKFFLGIIPYKTTYIHHPSDHFPIYATFLILS | soluble |
| MGSDKIHHHHHHVETSASVMEPFLQLLRGNNLRWRSFGLTRQDGNVSETEAIPNPQDTVDTHPWGRYVAMGDSFTEGIGDPEPGSPGGHRGWADRVAEELSRGHSDFAYANLAVRGRLLEQIVDQQLAPCLALKPDLVTLSAGGNDLIRPGGDPDALAEKLDSVVHILSLGGATVVLFNGPDTGSSVLGRVRSKIAIYNENLRTVAARHDAVIADMWSLRQLSDPQMWDQDRLHFSPLGHHTIAAMVLDSLNIRHTLEPLSPKPLPQRSWREARSGDLVWAREYFVPWVVRRLRHQSSGDGVTAKRPTPGPVFGPGMPLGSGEAPGIEAEQR | not soluble |
| MGSDKIHHHHHHMNTDARMGAGVSLKAEHYDQALACNLEGLWFEVHPENYMVGGPRLAWLNRIAERHPVSLHGVALSLAADAAPDQDHLQRLRALCDQIEPVLVYYHLAWSTWQGHYHPDLLPFPRSNEALQRIAENIQRCQEVLGRRISIENPSHYLQLQGHEWDEIDFLGELTRRTGCGLLLDINNVYVSAHNLGFSATAYLDRFPAQAITEVHLAGHSDDDQGSLLIDSHDAQVAEPVWALYRKLVSRVGPRPTLIERDDKLPPFTELLAERSIAQSIMTCPGVLP | not soluble |
| SMAPKPGLDFSPFDFAHFGFPSDNSGKERSFQAKPSPKLGRHVYSRPKVDIQKICIGNKNIFTVSDLKPDTQYYFDVFVVNINSNMSTAYVGTFARTKEEAKQKTVELKDGKITDVFVKRKGAKFLRFAPVSSHQKVTFFIHSCLDAVQIQVRRDGKLLLSQNVEGIQQFQLRGKPKAKYLVRLKGNKKGASMLKILATTRPTKQSFPSLPEDTRIKAFDKLRTCSSATVAWLGTQERNKFCIYKKEVDDNYNEDQKKREQNQCLGPDIRKKSEKVLCKYFHSQNLQKAVTTETIKGLQPGKSYLLDVYVIGHGGHSVKYQSKVVKTRKFC | soluble |
| MRNLTFLTRCKPLAASVLALMLLGGAAKSFANNDLPDLGTAAVNTFSLEKEMIYGDAYMRVIRSSAPMLNDPVLSQYLTELGNKLVAHATGVKTPFYFFLLQNDEINAFAFFGGHVAVHTGLFLNADNESELASVLGHEITHVTQRHLARSLEAQQKTGPATVAGLLGAILLTIAVPQAGMAALATTQAMATQSKINYTRLHEKEADRIGMQILVDAGFDPNASAEFFGKLASRYRFTTTPPQMLLTHPLPESRISEARDRAQQYPHRYVPDNLNFQLAKARIQVRFSSFSDDAVLSMFEKQLNKQTYGFKEAALYGKALALFRLKKFDESEKIVDELLKIDDNNLFYIDTKTDLLNERKDYAQAIKLLEAQRNLKPTSQVINANLANIYIEAGEPAKAIPLLEDMIFLDKQNQLPYQLLNLAYKKLGNPGMEYFSNAELMALGANYKGAIDQLNFAYRASEGNQLQLARIEARIRQFKQADREMDALKLEHHHHHH | not soluble |
